According to IntAct's records for PubMed 25766235:

B1: Regulator of G-protein signaling 2 (Homo sapiens), P41220-1 (parent)
chain: MQSAMFLAVQHDCRPMDKSAGSGHKSEEKREKMKRTLLKDWKTRLSYFLQNSSTPGKPKTGKKSKQQAFIKPSPEEAQLWSEAFDELLASKYGLAAFRAFLKSEFCEENIEFWLACEDFKKTKSPQKLSSKARKIYTDFIEKEAPKEINIDFQTKTLIAQNIQEATSGCFTTAQKRVYSLMENNSYPRFLESEFYQDLCKKPQITTEPHAT
partner: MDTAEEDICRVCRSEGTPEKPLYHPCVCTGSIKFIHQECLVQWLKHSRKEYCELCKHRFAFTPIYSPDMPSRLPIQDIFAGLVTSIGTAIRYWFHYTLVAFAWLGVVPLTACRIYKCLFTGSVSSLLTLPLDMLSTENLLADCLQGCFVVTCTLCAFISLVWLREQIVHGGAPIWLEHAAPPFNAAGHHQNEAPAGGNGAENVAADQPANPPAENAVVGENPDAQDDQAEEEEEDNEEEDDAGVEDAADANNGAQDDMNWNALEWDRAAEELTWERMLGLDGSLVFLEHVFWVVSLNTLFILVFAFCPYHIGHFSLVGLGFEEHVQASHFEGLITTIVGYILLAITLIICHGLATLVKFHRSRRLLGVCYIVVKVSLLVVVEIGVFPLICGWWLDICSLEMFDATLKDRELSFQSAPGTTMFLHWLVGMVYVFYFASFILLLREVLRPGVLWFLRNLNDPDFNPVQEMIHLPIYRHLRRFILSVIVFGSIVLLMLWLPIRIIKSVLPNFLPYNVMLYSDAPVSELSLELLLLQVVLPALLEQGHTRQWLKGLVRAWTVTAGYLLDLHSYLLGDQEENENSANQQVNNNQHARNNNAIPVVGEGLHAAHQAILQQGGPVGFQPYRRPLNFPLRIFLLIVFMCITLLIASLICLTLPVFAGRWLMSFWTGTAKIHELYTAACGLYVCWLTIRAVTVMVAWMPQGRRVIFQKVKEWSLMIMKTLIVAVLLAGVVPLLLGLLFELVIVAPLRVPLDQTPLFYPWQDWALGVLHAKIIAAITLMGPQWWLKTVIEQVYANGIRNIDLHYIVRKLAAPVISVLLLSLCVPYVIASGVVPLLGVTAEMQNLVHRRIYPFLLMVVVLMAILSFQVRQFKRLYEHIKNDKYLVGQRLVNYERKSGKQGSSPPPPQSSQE

Variants of: B1
Settings: with marh6_human MARCHF6, O60337

Row | effect of a mutation on the interaction | Variant
1 | disrupting interaction strength | PQSAMFLAVQHDCRPMDKSAGSGHKSEEKREKMKRTLLKDWKTRLSYFLQNSSTPGKPKTGKKSKQQAFIKPSPEEAQLWSEAFDELLASKYGLAAFRAFLKSEFCEENIEFWLACEDFKKTKSPQKLSSKARKIYTDFIEKEAPKEINIDFQTKTLIAQNIQEATSGCFTTAQKRVYSLMENNSYPRFLESEFYQDLCKKPQITTEPHAT [M1P]
